{"source": "the supplement of paper PMC12764529", "note": "± gives the half width of the 95% confidence interval."}
{"experiment": "folding stability dG unfold from trypsin proteolysis; higher = more stable", "method": "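Folding stability of de novo designed mini-proteins (<80 aa, no Cys; designed by TrROS, TrMRF, ProteinMPNN and the joint model) was measured by cDNA display proteolysis with trypsin and chymotrypsin. Each protease was used at 11 concentrations in a threefold dilution series plus a no-protease condition. K50 was inferred by Bayesian fitting of sequencing counts, and dG unfold was derived against a sequence-predicted unfolded-state K50 (Tsuboyama et al. method). Sequences shown include variable-length N-terminal GS-type padding (SAGGSAGG...) inside a display construct carrying a PA tag. Rows were kept only if the AF2 dimer inter-PAE was >15, to exclude likely homo-oligomers.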", "units": {"folding stability dG unfold": "kcal/mol"}}
{"sequence": "SGMTTSLGKSTTTTLPDGTTVKTEVKLTRPSSGTVVVTTDTTTVTPGTGTTTTTPTTTVVPVPPGVPGLLSA [r9_709_JUSTAS]", "folding stability dG unfold": "-0.522 ± 0.051"}
{"sequence": "KTIEIMIPMEQMRNNKPIPADQFLKELAQEFGGPNVKPKVEPMPDNMMKATITLPNGRKIEITDPGAIKIKS [r1_168_TrROS]", "folding stability dG unfold": "-0.43 ± 0.57"}
{"sequence": "SALPPEEVKKLARDIMREFNPDNGFKPEDVDVDPNEGTIMVDWRMPDPNGKRHRMPFQIQVDKDGKIKISAG [r14_183_TrROS]", "folding stability dG unfold": "-0.306 ± 0.36"}
{"sequence": "SAGGSAGGSAGGTKEFPIWFGGEPVKVTVEPDPDGQPKIEIEEPGGAEITIPPGGPLQFSAGGSAGGSAGGS [r10_989_TrROS]", "folding stability dG unfold": "0.934 ± 0.061"}
{"sequence": "SAGGSAGGSAGGVKPGEVLPDGRLLVTWDEETNELTVYFEDTETITLKAPPPVVVSPEDLSAGGSAGGSAGG [r7_522_TrROS_Hall]", "folding stability dG unfold": "0.0426 ± 0.11"}
{"sequence": "SAGPKIVEVKPSNGKLEITVEIPVPGAPVLFLNPAKNATIESDPNGRITITLDSEGEYEIIIGNPVFDSAGG [r19_227_TrMRF]", "folding stability dG unfold": "0.394 ± 0.026"}
{"sequence": "SAGGSAGGSAGSYEFDPSKSALVRVTLQPPDGVPVEIEIPVEELEEILPGDRPVLSIEVSSAGGSAGGSAGG [r17_449_JUSTAS]", "folding stability dG unfold": "0.0674 ± 0.14"}
{"sequence": "SAGGSAGGMVPITDLTVDSEEFVLPTGGVATRETITRPATGLVYEKVVFTPKPGVVEQREVALLSAGGSAGG [r6_895_JUSTAS]", "folding stability dG unfold": "-0.471 ± 0.12"}
{"sequence": "SAGGSAGGEPITPEEAREIADYFMEEHGAKEVEVKVDPNGGIIKIDVTHPNDGRKYEREIQIEKSAGGSAGG [r6_550_TrROS]", "folding stability dG unfold": "0.142 ± 0.13"}
{"sequence": "SGNSLNEKGESYPITVKAPDPNVTPEQVKAALEKAGAKVLEIKRPPKGSTLTVSVEITDPEKVKEAFEKLSA [r9_1154_JUSTAS]", "folding stability dG unfold": "-1.05 ± 0.44"}
{"sequence": "SAGVEELAEKIAKELEGEDFEVEAEVDPEKGTITVVVKTPDYVVVKEIYIDPKNDKPVMDVKVFKPNESAGG [r19_2_TrMRF]", "folding stability dG unfold": "0.241 ± 0.059"}
{"sequence": "SAGGSLPADAEVTEVVEDPSKGVVTVKVTVRDSEGKVVEERTVVTPVEPVPPLSPENLKKNLLLTLLSAGGS [r16_697_JUSTAS]", "folding stability dG unfold": "0.249 ± 0.12"}
{"sequence": "SAGGSAGGSMVLIIVPPSKPELAEEKAKELAEKGEIKEYEIKTVSSEEEAEKLAKNYEKVILESAGGSAGGS [r12_679_JUSTAS]", "folding stability dG unfold": "-0.171 ± 0.083"}
{"sequence": "SAGGSAGGSAGGSMKVEKFTEIITTPDGKPELIVEKEKTTTPNGGTKTTVTKIIPAKLLSAGGSAGGSAGGS [r4_117_JUSTAS]", "folding stability dG unfold": "-0.306 ± 0.38"}
{"sequence": "SAGGSAGGSAGSPPGSTTLRAETVVVELPAAEAYTPEGERVELPRVIVEETVERELEAGLSAGGSAGGSAGG [r11_907_JUSTAS]", "folding stability dG unfold": "0.427 ± 0.043"}
{"sequence": "SAGGSAGGSSPDIEVEITVDAPPGARILGTDGKPVEIPASNPKVKIIVIEGDNSFFIKTEPVGSAGGSAGGS [r12_338_TrMRF]", "folding stability dG unfold": "-0.362 ± 0.22"}
{"sequence": "SMGLTKKERVITIVKEAYAKNPDKKITLRYADIEATTPEKMSAEEIEKLLKEVTGIKDIKIYPVKPDDPESA [r9_738_TrMRF]", "folding stability dG unfold": "0.0464 ± 0.25"}
{"sequence": "SAGGSAYGKKKNDPDGNPKYEMEPQPTIEVPVTIPIFDNNNNPLLEIPIPASMPISDINDEIKDLFSAGGSA [r15_309_TrROS]", "folding stability dG unfold": "-1.57 ± 0.7"}
{"sequence": "SAGGSAGGSATVDEVIKEAREEAREEHPNYPPGQTHTIKIRDPDNGEKVKIRFTNDGKIEISAGGSAGGSAG [r3_441_TrROS]", "folding stability dG unfold": "-0.0324 ± 0.057"}
{"sequence": "SAGGSAMPPGQPWKIKRTIPFKDPNGWKITIYRMPDDGHVWVRWEPPNGGEREVWMPAEEAEDALKSAGGSA [r15_2_TrROS]", "folding stability dG unfold": "0.902 ± 0.23"}
{"sequence": "SAGGSAGGEKKYEVVEKKELTLEDIEKADEILVVGKDGKVFKSRDDVKAAAEKGEKITVYVVKKSAGGSAGG [r6_827_TrROS_Hall]", "folding stability dG unfold": "0.0471 ± 0.46"}
{"sequence": "SAGGSAGGSAGKKRKIEINIIVPPEGAKQMAKMIKDELAQRNRDVDIEIKIIPVPPGQPLSAGGSAGGSAGG [r11_973_TrROS]", "folding stability dG unfold": "0.434 ± 0.16"}
{"sequence": "SAGGSAGGSAGGSMGPVPVWITIKIPDKNGKPKRKIEIPMEGPNMTPSEIRKQAKPFIKSAGGSAGGSAGGS [r4_375_TrROS]", "folding stability dG unfold": "-0.281 ± 0.49"}
{"sequence": "SAGGSAGGPYMVMIRMPNNPQPIWFPPDEVKEALKEGDEKRIKFPGGGMEMTIRNVDDIEIMPPSAGGSAGG [r6_509_TrROS]", "folding stability dG unfold": "-0.793 ± 0.58"}
{"sequence": "SAGGSAGGSAGGSGGSMEVSISEAPPEYLVVTVYDPATGKTTVRKVSPSEVKSLKYEGGSAGGSAGGSAGGS [r4_494_JUSTAS]", "folding stability dG unfold": "0.274 ± 0.053"}
{"sequence": "SAGGSAGGSAGGMKTYSVEELRARLEEEGKEPTLEELASLPGAKVELNKETKEATIVLKPSAGGSAGGSAGG [r7_180_TrROS_Hall]", "folding stability dG unfold": "0.044 ± 0.16"}
{"sequence": "SAGGSAGGSAPLEELLDVIRSVPANTRAEFPIIVETETGYVPYIARVENPEPGGALIEIEKASAGGSAGGSA [r18_493_TrMRF]", "folding stability dG unfold": "-0.258 ± 0.11"}
{"sequence": "SAGGSAGGSAGPGEPVPIRLKIYGPNGQPHTHPFPVKNPEEFKDNLRFPVPNGWAVEIEYSAGGSAGGSAGG [r11_671_TrROS]", "folding stability dG unfold": "-0.719 ± 0.37"}
{"sequence": "SPIVTDLPPKEATRVEVEALVEELEAKGEPPREVVVYDPSRGVPLATIPVTSREELLAAVEAGRPFRVLLSA [r9_718_JUSTAS]", "folding stability dG unfold": "-0.697 ± 0.31"}
{"sequence": "SAGGSAGGSAALGDESLHRPVPVVSTSPVTTTTTLTLTPPNGVTVTESVTTTTTVYGSGAASAGGSAGGSAG [r3_380_JUSTAS]", "folding stability dG unfold": "0.553 ± 0.025"}
{"sequence": "SAGGSAGGAEELAEELERALPEGEVTEVRVEVVELPEGEPEVVVTVRVKRDGKEVKELPVIRVPSAGGSAGG [r6_630_TrROS_Hall]", "folding stability dG unfold": "-0.492 ± 0.16"}
{"sequence": "SAGGKVEIYNPNGQWKEITPEDLEGLKPGTIWQMPNGPVMIEIPGNDETIPIPMDSPNDIKDAIKDALSAGG [r13_962_TrROS]", "folding stability dG unfold": "0.246 ± 0.066"}
{"sequence": "SAGGSAEKPTATLRPVVLNYPEGPISRDPSGNVVNSPEELAKEVKEEILKKTGLPVEEIVVLVEPPSAGGSA [r15_415_JUSTAS]", "folding stability dG unfold": "-0.739 ± 0.061"}
{"sequence": "SAGGSAMVPEDEGLIVVERDVPFDKAEEFVEEVIEELGIPPEKVKKIELFEEKVEDGPALRALVYLSAGGSA [r15_934_TrMRF]", "folding stability dG unfold": "-0.294 ± 0.32"}
{"sequence": "SAGGSAGGSAGGSMRYDIVEDPETGTVTINRYVVYPPGIEKKTEGEIVPASTVPPGDLLGSAGGSAGGSAGG [r7_455_JUSTAS]", "folding stability dG unfold": "-0.0505 ± 0.29"}
{"sequence": "SAGGWMPIEDLKDIPENMPPGYKITIRNPGNGQEGTFEYNKDGGIKIEDPGKPVEIPPGAYIDEIEPSAGGS [r8_162_TrROS]", "folding stability dG unfold": "0.654 ± 0.12"}
{"sequence": "SAGGSAGGSSPIVVEEEPDRYVITIPPSQPELVEEVLEKLGLPAEDITRTLIPEGLVRYEVPGSAGGSAGGS [r12_493_JUSTAS]", "folding stability dG unfold": "-0.419 ± 0.28"}
{"sequence": "SAGGSAGGSAMKPERIELPGNEVAVIEKVPEAGVYIVTFKKPEGDEPLGEKIFKPDEIDLKLESAGGSAGGS [r20_190_JUSTAS]", "folding stability dG unfold": "-1.17 ± 0.24"}
{"sequence": "SAGGSAGGNPEDKERRYVRMPIKVTVPNPNGKKIKIPIYMPVGDPERMMPRAIKFARELAKKGLSAGGSAGG [r6_903_TrROS]", "folding stability dG unfold": "-0.301 ± 0.7"}
{"sequence": "SAGSMPVESTSERKLEKDGVATVTTTSYPDASPGGTDTVTVTLHPGESESATTTYTQPPGAPPLTVSLESAG [r5_47_JUSTAS]", "folding stability dG unfold": "-1.05 ± 0.27"}
{"sequence": "SAGGSAGGSAGGGESAAPVVATTVSEEVFEEPGGTVIRRYTVTTPAATTTLSTEVLPPLLSAGGSAGGSAGG [r7_43_JUSTAS]", "folding stability dG unfold": "-0.25 ± 0.17"}
{"sequence": "SAGGSAGGSAGGSPPTAKELVKELREKFPPGYPITIKHPDKTIRIMMNPGPGKFQVEIYSAGGSAGGSAGGS [r4_150_TrROS]", "folding stability dG unfold": "-0.236 ± 0.37"}
{"sequence": "SAGGSAGGSAGGKRITIMFNTPEQIEELAENLGFDDIEVEPFPNEDGRPYVQVTIRLPPSAGGSAGGSAGGS [r10_494_TrROS]", "folding stability dG unfold": "-0.703 ± 0.15"}
{"sequence": "SAGGSAGGSGMEEAIEKAKKEILEKNPDLPPNAVVNEPILVKDPSTDEEYVIPVTFTIPENNLSAGGSAGGS [r12_591_JUSTAS]", "folding stability dG unfold": "-0.137 ± 0.063"}
{"sequence": "SAGGSATIKEGQVITRTVTDPSTGKEYEVEITIKKVTKYPASPEGILREEYEIEVKKSPKVSPLKLSAGGSA [r15_248_JUSTAS]", "folding stability dG unfold": "0.112 ± 0.12"}
{"sequence": "SAGGSAGGSAGGEVEVPKDASLVVTYPNGERKEVPVEDKVPVKGLPVYLLGPDGTLREIDSAGGSAGGSAGG [r7_54_TrMRF]", "folding stability dG unfold": "0.294 ± 0.18"}
{"sequence": "SAGGSALPPDQRLVVIDLGREPGVTPDEPVEVPEELIEKIKKENPNVKLVEVKHEGDKVTLYIAIKSAGGSA [r2_383_JUSTAS]", "folding stability dG unfold": "-0.0124 ± 0.48"}
